Measurements from the supplement of paper PMC5998384.

Assays:
HeLa Kyoto [1] = test: solubility in G1/S (NP-40 vs SDS abundance) (log2 ratio); higher = more soluble; conditions: cell cycle stage: G1/S
HeLa Kyoto [2] = test: melting temperature (median over replicates), in situ; higher = more thermally stable
HeLa Kyoto [3] = test: solubility change mitosis vs G1/S (difference of NP-40 vs SDS log2 ratios) (log2 ratio difference); higher = more soluble in mitosis
HeLa Kyoto [4] = test: thermal stability score vs G1/S (z-score of summed log2 fold changes over temperatures); higher = more thermally stable than in G1/S
[5] = cell cycle stage: early G1 (4.5 h after nocodazole release)
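For melting temperature (median over replicates), in situ in this document: HeLa Kyoto cells synchronized by double thymidine or nocodazole block, proteins quantified by TMT10plex mass spectrometry, three independent biological replicates.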
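For solubility change mitosis vs G1/S (difference of NP-40 vs SDS log2 ratios) in this document: synchronized HeLa Kyoto cells (double thymidine block for G1/S, nocodazole release for mitosis), protein amounts in NP-40 versus SDS lysates quantified by mass spectrometry, three biological replicates.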
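For solubility in G1/S (NP-40 vs SDS abundance) in this document: HeLa Kyoto cells arrested at G1/S by double thymidine block, proteins quantified by TMT10plex mass spectrometry in mild NP-40 versus SDS extracts, three biological replicates.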
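For thermal stability score vs G1/S (z-score of summed log2 fold changes over temperatures) in this document: synchronized HeLa Kyoto cells, proteins quantified by TMT10plex mass spectrometry, three biological replicates, mitosis taken 0.5 h after nocodazole release, G1/S directly after double thymidine block.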

Sequence	solubility in G1/S (log2) (HeLa Kyoto [1])	melting temperature (HeLa Kyoto [2]; cell cycle stage: G1/S) [°C]	melting temperature (HeLa Kyoto [2]; cell cycle stage: mitosis) [°C]	solubility change mitosis (log2) (HeLa Kyoto [3])	thermal stability score (HeLa Kyoto [4]; [5])	thermal stability score (HeLa Kyoto [4]; cell cycle stage: mitosis)
MDARWWAVVVLAAFPSLGAGGETPEAPPESWTQLWFFRFVVNAAGYASFMVPGYLLVQYFRRKNYLETGRGLCFPLVKACVFGNEPKASDEVPLAPRTEAAETTPMWQALKLLFCATGLQVSYLTWGVLQERVMTRSYGATATSPGERFTDSQFLVLMNRVLALIVAGLSCVLCKQPRHGAPMYRYSFASLSNVLSSWCQYEALKFVSFPTQVLAKASKVIPVMLMGKLVSRRSYEHWEYLTATLISIGVSMFLLSSGPEPRSSPATTLSGLILLAGYIAFDSFTSNWQDALFAYKMSSVQMMFGVNFFSCLFTVGSLLEQGALLEGTRFMGRHSEFAAHALLLSICSACGQLFIFYTIGQFGAAVFTIIMTLRQAFAILLSCLLYGHTVTVVGGLGVAVVFAALLLRVYARGRLKQRGKKAVPVESPVQKV [SLC35B2]	0.112	54.9	56.3	-0.177	-0.147	1.08
MDCSLVRTLVHRYCAGEENWVDSRTIYVGHREPPPGAEAYIPQRYPDNRIVSSKYTFWNFIPKNLFEQFRRVANFYFLIIFLVQLIIDTPTSPVTSGLPLFFVITVTAIKQGYEDWLRHKADNAMNQCPVHFIQHGKLVRKQSRKLRVGDIVMVKEDETFPCDLIFLSSNRGDGTCHVTTASLDGESSHKTHYAVQDTKGFHTEEDIGGLHATIECEQPQPDLYKFVGRINVYSDLNDPVVRPLGSENLLLRGATLKNTEKIFGVAIYTGMETKMALNYQSKSQKRSAVEKSMNAFLIVYLCILISKALINTVLKYMWQSEPFRDEPWYNQKTESERQRNLFLKAFTDFLAFMVLFNYIIPVSMYVTVEMQKFLGSYFITWDEDMFDEETGEGPLVNTSDLNEELGQVEYIFTDKTGTLTENNMEFKECCIEGHVYVPHVICNGQVLPESSGIDMIDSSPSVNGREREELFFRALCLCHTVQVKDDDSVDGPRKSPDGGKSCVYISSSPDEVALVEGVQRLGFTYLRLKDNYMEILNRENHIERFELLEILSFDSVRRRMSVIVKSATGEIYLFCKGADSSIFPRVIEGKVDQIRARVERNAVEGLRTLCVAYKRLIQEEYEGICKLLQAAKVALQDREKKLAEAYEQIEKDLTLLGATAVEDRLQEKAADTIEALQKAGIKVWVLTGDKMETAAATCYACKLFRRNTQLLELTTKRIEEQSLHDVLFELSKTVLRHSGSLTRDNLSGLSADMQDYGLIIDGAALSLIMKPREDGSSGNYRELFLEICRSCSAVLCCRMAPLQKAQIVKLIKFSKEHPITLAIGDGANDVSMILEAHVGIGVIGKEGRQAARNSDYAIPKFKHLKKMLLVHGHFYYIRISELVQYFFYKNVCFIFPQFLYQFFCGFSQQTLYDTAYLTLYNISFTSLPILLYSLMEQHVGIDVLKRDPTLYRDVAKNALLRWRVFIYWTLLGLFDALVFFFGAYFVFENTTVTSNGQIFGNWTFGTLVFTVMVFTVTLKLALDTHYWTWINHFVIWGSLLFYVVFSLLWGGVIWPFLNYQRMYYVFIQMLSSGPAWLAIVLLVTISLLPDVLKKVLCRQLWPTATERVQTKSQCLSVEQSTIFMLSQTSSSLSF [ATP11A]	-0.526	53.8	53.8	0.163	-1.06	-0.922
MDDFERRRELRRQKREEMRLEAERIAYQRNDDDEEEAARERRRRARQERLRQKQEEESLGQVTDQVEVNAQNSVPDEEAKTTTTNTQVEGDDEAAFLERLARREERRQKRLQEALERQKEFDPTITDASLSLPSRRMQNDTAENETTEKEEKSESRQERYEIEETETVTKSYQKNDWRDAEENKKEDKEKEEEEEEKPKRGSIGENQVEVMVEEKTTESQEETVVMSLKNGQISSEEPKQEEEREQGSDEISHHEKMEEEDKERAEAERARLEAEERERIKAEQDKKIADERARIEAEEKAAAQERERREAEERERMREEEKRAAEERQRIKEEEKRAAEERQRIKEEEKRAAEERQRIKEEEKRAAEERQRARAEEEEKAKVEEQKRNKQLEEKKHAMQETKIKGEKVEQKIEGKWVNEKKAQEDKLQTAVLKKQGEEKGTKVQAKREKLQEDKPTFKKEEIKDEKIKKDKEPKEEVKSFMDRKKGFTEVKSQNGEFMTHKLKHTENTFSRPGGRASVDTKEAEGAPQVEAGKRLEELRRRRGETESEEFEKLKQKQQEAALELEELKKKREERRKVLEEEEQRRKQEEADRKLREEEEKRRLKEEIERRRAEAAEKRQKMPEDGLSDDKKPFKCFTPKGSSLKIEERAEFLNKSVQKSSGVKSTHQAAIVSKIDSRLEQYTSAIEGTKSAKPTKPAASDLPVPAEGVRNIKSMWEKGNVFSSPTAAGTPNKETAGLKVGVSSRINEWLTKTPDGNKSPAPKPSDLRPGDVSSKRNLWEKQSVDKVTSPTKV [CALD1]	0.0624	57.1	57.1	0.119	0.295	-2.2
MDDSEVESTASILASVKEQEAQFEKLTRALEEERRHVSAQLERVRVSPQDANPLMANGTLTRRHQNGRFVGDADLERQKFSDLKLNGPQDHSHLLYSTIPRMQEPGQIVETYTEEDPEGAMSVVSVETSDDGTTRRTETTVKKVVKTVTTRTVQPVAMGPDGLPVDASSVSNNYIQTLGRDFRKNGNGGPGPYVGQAGTATLPRNFHYPPDGYSRHYEDGYPGGSDNYGSLSRVTRIEERYRPSMEGYRAPSRQDVYGPQPQVRVGGSSVDLHRFHPEPYGLEDDQRSMGYDDLDYGMMSDYGTARRTGTPSDPRRRLRSYEDMIGEEVPSDQYYWAPLAQHERGSLASLDSLRKGGPPPPNWRQPELPEVIAMLGFRLDAVKSNAAAYLQHLCYRNDKVKTDVRKLKGIPVLVGLLDHPKKEVHLGACGALKNISFGRDQDNKIAIKNCDGVPALVRLLRKARDMDLTEVITGTLWNLSSHDSIKMEIVDHALHALTDEVIIPHSGWEREPNEDCKPRHIEWESVLTNTAGCLRNVSSERSEARRKLRECDGLVDALIFIVQAEIGQKDSDSKLVENCVCLLRNLSYQVHREIPQAERYQEAAPNVANNTGPHAASCFGAKKGKDEWFSRGKKPIEDPANDTVDFPKRTSPARGYELLFQPEVVRIYISLLKESKTPAILEASAGAIQNLCAGRWTYGRYIRSALRQEKALSAIADLLTNEHERVVKAASGALRNLAVDARNKELIGKHAIPNLVKNLPGGQQNSSWNFSEDTVISILNTINEVIAENLEAAKKLRETQGIEKLVLINKSGNRSEKEVRAAALVLQTIWGYKELRKPLEKEGWKKSDFQVNLNNASRSQSSHSYDDSTLPLIDRNQKSDKKPDREEIQMSNMGSNTKSLDNNYSTPNERGDHNRTLDRSGDLGDMEPLKGTTPLMQDEGQESLEEELDVLVLDDEGGQVSYPSMQKI [CTNND1]	0.228	48.1	48	-0.0563	-0.443	1.3
MDEAVGDLKQALPCVAESPTVHVEVHQRGSSTAKKEDINLSVRKLLNRHNIVFGDYTWTEFDEPFLTRNVQSVSIIDTELKVKDSQPIDLSACTVALHIFQLNEDGPSSENLEEETENIIAANHWVLPAAEFHGLWDSLVYDVEVKSHLLDYVMTTLLFSDKNVNSNLITWNRVVLLHGPPGTGKTSLCKALAQKLTIRLSSRYRYGQLIEINSHSLFSKWFSESGKLVTKMFQKIQDLIDDKDALVFVLIDEVESLTAARNACRAGTEPSDAIRVVNAVLTQIDQIKRHSNVVILTTSNITEKIDVAFVDRADIKQYIGPPSAAAIFKIYLSCLEELMKCQIIYPRQQLLTLRELEMIGFIENNVSKLSLLLNDISRKSEGLSGRVLRKLPFLAHALYVQAPTVTIEGFLQALSLAVDKQFEERKKLAAYI [TRIP13]	-0.0812	50.9	51.3	-0.116	3.83	2.94
MDFLMSGLAACGACVFTNPLEVVKTRMQLQGELQAPGTYQRHYRNVFHAFITIGKVDGLAALQKGLAPALLYQFLMNGIRLGTYGLAEAGGYLHTAEGTHSPARSAAAGAMAGVMGAYLGSPIYMVKTHLQAQAASEIAVGHQYKHQGMFQALTEIGQKHGLVGLWRGALGGLPRVIVGSSTQLCTFSSTKDLLSQWEIFPPQSWKLALVAAMMSGIAVVLAMAPFDVACTRLYNQPTDAQGKGLMYRGILDALLQTARTEGIFGMYKGIGASYFRLGPHTILSLFFWDQLRSLYYTDTK [SLC25A35]	0.0544	56.2	54.3	-0.137	0.653	-0.326
MDFNMKKLASDAGIFFTRAVQFTEEKFGQAEKTELDAHFENLLARADSTKNWTEKILRQTEVLLQPNPSARVEEFLYEKLDRKVPSRVTNGELLAQYMADAASELGPTTPYGKTLIKVAEAEKQLGAAERDFIHTASISFLTPLRNFLEGDWKTISKERRLLQNRRLDLDACKARLKKAKAAEAKATTVPDFQETRPRNYILSASASALWNDEVDKAEQELRVAQTEFDRQAEVTRLLLEGISSTHVNHLRCLHEFVKSQTTYYAQCYRHMLDLQKQLGRFPGTFVGTTEPASPPLSSTSPTTAAATMPVVPSVASLAPPGEASLCLEEVAPPASGTRKARVLYDYEAADSSELALLADELITVYSLPGMDPDWLIGERGNKKGKVPVTYLELLS [SH3GLB2]	0.445	49.7	50.1	-0.0988	-1.15	0.211
MDFSKFLADDFDVKEWINAAFRAGSKEAASGKADGHAATLVMKLQLFIQEVNHAVEETSHQALQNMPKVLRDVEALKQEASFLKEQMILVKEDIKKFEQDTSQSMQVLVEIDQVKSRMQLAAESLQEADKWSTLSADIEETFKTQDIAVISAKLTGMQNSLMMLVDTPDYSEKCVHLEALKNRLEALASPQIVAAFTSQAVDQSKVFVKVFTEIDRMPQLLAYYYKCHKVQLLAAWQELCQSDLSLDRQLTGLYDALLGAWHTQIQWATQVFQKPHEVVMVLLIQTLGALMPSLPSCLSNGVERAGPEQELTRLLEFYDATAHFAKGLEMALLPHLHEHNLVKVTELVDAVYDPYKPYQLKYGDMEESNLLIQMSAVPLEHGEVIDCVQELSHSVNKLFGLASAAVDRCVRFTNGLGTCGLLSALKSLFAKYVSDFTSTLQSIRKKCKLDHIPPNSLFQEDWTAFQNSIRIIATCGELLRHCGDFEQQLANRILSTAGKYLSDSCSPRSLAGFQESILTDKKNSAKNPWQEYNYLQKDNPAEYASLMEILYTLKEKGSSNHNLLAAPRAALTRLNQQAHQLAFDSVFLRIKQQLLLISKMDSWNTAGIGETLTDELPAFSLTPLEYISNIGQYIMSLPLNLEPFVTQEDSALELALHAGKLPFPPEQGDELPELDNMADNWLGSIARATMQTYCDAILQIPELSPHSAKQLATDIDYLINVMDALGLQPSRTLQHIVTLLKTRPEDYRQVSKGLPRRLATTVATMRSVNY [COG7]	0.165	48.8	48.7	-0.0565	0.766	1.31
